Laboratory results from the Immune Epitope Database (IEDB).

Columns and labels:
HLA-A*02:01 [1] = assay: IEDB peptide-MHC binding, purified MHC/competitive/fluorescence; filed as Kd, often an IC50 or EC50 that approximates it; ≥ and ≤ were set here for values at or beyond the usual limits of such assays
HLA-A*02:03 = assay: as above; conditions: source organism: Human immunodeficiency virus 1
HLA-A*02:06 = assay: as above; conditions: source organism: Human immunodeficiency virus 1
HLA-A*02:12 = assay: as above; conditions: source organism: Human immunodeficiency virus 1
HLA-A*02:16 = assay: as above; conditions: source organism: Human immunodeficiency virus 1
HLA-A*02:19 = assay: as above; conditions: source organism: Human immunodeficiency virus 1
HLA-A*69:01 [2] = assay: as above
HLA-C*08:02 = assay: IEDB peptide-MHC binding, purified MHC/direct/fluorescence; filed as Kd, often an IC50 or EC50 that approximates it; ≥ and ≤ were set here for values at or beyond the usual limits of such assays
HLA-C*12:03 = assay: as above
HLA-B*27:03 = assay: IEDB peptide-MHC binding, purified MHC/competitive/fluorescence; filed as Kd, often an IC50 or EC50 that approximates it; ≥ and ≤ were set here for values at or beyond the usual limits of such assays; conditions: source organism: Mus musculus
HLA-B*39:01 [3] = assay: as above; conditions: source organism: Mus musculus
HLA-B*46:01 = assay: as above; conditions: source organism: Mus musculus
HLA-B*51:01 = assay: as above; conditions: source organism: Mus musculus
HLA-A*01:01 = assay: IEDB peptide-MHC binding, purified MHC/direct/fluorescence; filed as Kd, often an IC50 or EC50 that approximates it; ≥ and ≤ were set here for values at or beyond the usual limits of such assays
HLA-A*02:01 [4] = assay: as above; conditions: source organism: Camelpox virus M-96
HLA-A*26:01 = assay: as above; conditions: source organism: Variola virus
HLA-A*31:01 [5] = assay: as above
HLA-A*69:01 [6] = assay: as above; conditions: source organism: Camelpox virus M-96
HLA-B*08:01 = assay: as above; conditions: source organism: Variola virus
HLA-B*15:09 = assay: as above; conditions: source organism: Variola virus
HLA-B*27:05 = assay: as above; conditions: source organism: Camelpox virus M-96
HLA-B*39:01 [7] = assay: as above; conditions: source organism: Variola virus
HLA-B*40:01 = assay: as above
HLA-B*48:01 = assay: as above
HLA-B*58:01 = assay: as above
HLA-A*03:01 [8] = assay: IEDB peptide-MHC binding, purified MHC/competitive/fluorescence; filed as Kd, often an IC50 or EC50 that approximates it; ≥ and ≤ were set here for values at or beyond the usual limits of such assays; conditions: source organism: Vaccinia virus Copenhagen
HLA-A*11:01 [9] = assay: as above; conditions: source organism: Vaccinia virus Copenhagen
HLA-B*15:01 = assay: as above; conditions: source organism: Vaccinia virus Copenhagen
HLA-B*15:17 = assay: as above; conditions: source organism: Vaccinia virus Copenhagen
HLA-B*57:01 [10] = assay: as above; conditions: source organism: Vaccinia virus Copenhagen
HLA-A*03:01 [11] = assay: IEDB peptide-MHC binding, purified MHC/competitive/radioactivity; filed as Kd, often an IC50 or EC50 that approximates it; ≥ and ≤ were set here for values at or beyond the usual limits of such assays; conditions: source organism: Vaccinia virus WR
HLA-A*11:01 [12] = assay: as above; conditions: source organism: Vaccinia virus WR
HLA-A*31:01 [13] = assay: as above; conditions: source organism: Vaccinia virus WR
HLA-A*33:01 = assay: as above; conditions: source organism: Vaccinia virus WR
HLA-A*68:01 = assay: as above; conditions: source organism: Vaccinia virus WR
HLA-A*03:01 [14] = assay: IEDB peptide-MHC binding, purified MHC/direct/fluorescence; filed as Kd, often an IC50 or EC50 that approximates it; ≥ and ≤ were set here for values at or beyond the usual limits of such assays; conditions: source organism: Cryptosporidium hominis
HLA-B*07:02 = assay: as above; conditions: source organism: Cryptosporidium hominis
HLA-B*08:03 = assay: as above; conditions: source organism: Cryptosporidium parvum Iowa II
HLA-B*18:01 = assay: as above; conditions: source organism: Cryptosporidium hominis
HLA-B*44:02 = assay: as above; conditions: source organism: Cryptosporidium hominis
HLA-B*57:01 [15] = assay: as above; conditions: source organism: Cryptosporidium hominis
HLA-C*03:03 = assay: as above; conditions: source organism: Rickettsia rickettsii str. 'Sheila Smith'
[16] = source organism: Human immunodeficiency virus 1
[17] = source organism: Camelpox virus M-96
[18] = source organism: Cryptosporidium hominis
[19] = source organism: Rickettsia rickettsii str. 'Sheila Smith'

SLVKHHMYV
Kd (HLA-A*02:01 [1]; [16]): 7.33 nM
Kd (HLA-A*02:03): 1.88 nM
Kd (HLA-A*02:06): ≤ 0.1 nM
Kd (HLA-A*02:12): 9.35 nM
Kd (HLA-A*02:16): 0.572 nM
Kd (HLA-A*02:19): 17.2 nM
Kd (HLA-A*69:01 [2]; [16]): 146 nM

YTFCGTIEY
Kd (HLA-C*08:02; source organism: Mus musculus): ≥ 20000 nM
Kd (HLA-C*12:03; source organism: Mus musculus): ≤ 1 nM
Kd (HLA-A*02:01 [1]; source organism: Mus musculus): ≥ 20000 nM
Kd (HLA-A*69:01 [2]; source organism: Mus musculus): ≥ 20000 nM
Kd (HLA-B*27:03): ≥ 20000 nM
Kd (HLA-B*39:01 [3]): ≥ 20000 nM
Kd (HLA-B*46:01): 11.4 nM
Kd (HLA-B*51:01): ≥ 20000 nM

MTRVTNNVY
Kd (HLA-A*01:01; [17]): 2590 nM
Kd (HLA-A*02:01 [4]): ≥ 20000 nM
Kd (HLA-A*26:01): 237 nM
Kd (HLA-A*31:01 [5]; [17]): ≥ 20000 nM
Kd (HLA-A*69:01 [6]): ≥ 20000 nM
Kd (HLA-B*08:01): ≥ 20000 nM
Kd (HLA-B*15:09): ≥ 20000 nM
Kd (HLA-B*27:05): ≥ 20000 nM
Kd (HLA-B*39:01 [7]): ≥ 20000 nM
Kd (HLA-B*40:01; [17]): ≥ 20000 nM
Kd (HLA-B*48:01; [17]): ≥ 20000 nM
Kd (HLA-B*58:01; source organism: Variola virus): 635 nM
Kd (HLA-A*03:01 [8]): ≥ 20000 nM
Kd (HLA-A*11:01 [9]): ≥ 20000 nM
Kd (HLA-B*15:01): 125 nM
Kd (HLA-B*15:17): ≤ 1 nM
Kd (HLA-B*57:01 [10]): 98.6 nM

FTDISMSLY
Kd (HLA-A*01:01; [17]): ≤ 1 nM
Kd (HLA-C*08:02; source organism: Variola virus): 19 nM
Kd (HLA-A*03:01 [11]): ≥ 32200 nM
Kd (HLA-A*11:01 [12]): 2530 nM
Kd (HLA-A*31:01 [13]): 10700 nM
Kd (HLA-A*33:01): ≥ 77700 nM
Kd (HLA-A*68:01): 546 nM

FMKSRVYSI
Kd (HLA-A*01:01; [18]): ≥ 20000 nM
Kd (HLA-A*03:01 [14]): ≥ 20000 nM
Kd (HLA-A*31:01 [5]; [18]): ≥ 20000 nM
Kd (HLA-B*07:02): ≥ 20000 nM
Kd (HLA-B*08:03): 29 nM
Kd (HLA-B*18:01): ≥ 20000 nM
Kd (HLA-B*40:01; [18]): ≥ 20000 nM
Kd (HLA-B*44:02): ≥ 20000 nM
Kd (HLA-B*48:01; [18]): ≥ 20000 nM
Kd (HLA-B*57:01 [15]): ≥ 20000 nM
Kd (HLA-B*58:01; [18]): ≥ 20000 nM

FMPESSYLL
Kd (HLA-C*03:03): 443 nM
Kd (HLA-C*08:02; [19]): ≥ 20000 nM
Kd (HLA-C*12:03; [19]): 707 nM
